According to patent US20090280138A1 (OXFORD BIOMEDICA UK, published 2009):

Key:
Experiment in all cases: iTopia peptide binding assay
[1] = target: T1, MHC class I molecule A*0301 (biotin (bound to streptavidin-coated plate))
T1 construct: iTopia monomer stripped of placeholder peptide and b2M, then reconstituted with test peptide and fresh b2M; also called A3; HLA-A3
Protocol: (§1) The 9 mers were tested for Peptide Binding, Off Rate and Affinity using iTopia Epitope Discovery System in accordance with the manufacturer's instructions. Briefly, 96 well microtitre plates coated with MHC molecules representing different MHC alleles are used to identify candidate peptides. […] Determinations are performed in duplicate using an ELISA plate reader and included allele specific positive controls.
(§2) i) Peptide Binding—This assay measures the ability of individual peptides to bind to the MHC molecules under standardized optimal binding conditions. The assay is performed for all the test peptides across the selected MHC alleles. The test peptides identified as “binders” are characterized further in terms of affinity and dissociation experiments.

[2] = target: T2, MHC class I molecule B*0702 (biotin (bound to streptavidin-coated plate))
T2 construct: iTopia monomer stripped of placeholder peptide and b2M, then reconstituted with test peptide and fresh b2M; also called B7; HLA-B7
Protocol: as §1, §2

[3] = target: T3, MHC class I molecule A*0201 (biotin (bound to streptavidin-coated plate))
T3 construct: iTopia monomer stripped of placeholder peptide and b2M, then reconstituted with test peptide and fresh b2M; also called A2; HLA-A2
Protocol: as §1, §2

[4] = target: T4, MHC class I molecule A*0101 (biotin (bound to streptavidin-coated plate))
T4 construct: iTopia monomer stripped of placeholder peptide and b2M, then reconstituted with test peptide and fresh b2M; also called A1; HLA-A1
Protocol: as §1, §2

[5] = target: T5, MHC class I allele A*0301 (bound via biotin to streptavidin-coated plate)
T5 construct: iTopia MHC class I monomer on the plate; placeholder peptide and b2M removed, then reconstituted with test peptide and fresh b2M; also called A3; HLA A3
Protocol: as §1, §2

[6] = target: T6, MHC class I allele B*0702 (bound via biotin to streptavidin-coated plate)
T6 construct: iTopia MHC class I monomer on the plate; placeholder peptide and b2M removed, then reconstituted with test peptide and fresh b2M; also called B7; HLA B7
Protocol: as §1, §2

[7] = target: T7, MHC class I allele A*0101 (bound via biotin to streptavidin-coated plate)
T7 construct: iTopia MHC class I monomer on the plate; placeholder peptide and b2M removed, then reconstituted with test peptide and fresh b2M; also called A1; HLA A1
Protocol: as §1, §2

[8] = target: T8, MHC class I allele A*0201 (bound via biotin to streptavidin-coated plate)
T8 construct: iTopia MHC class I monomer on the plate; placeholder peptide and b2M removed, then reconstituted with test peptide and fresh b2M; also called A2; HLA A2
Protocol: as §1, §2

Row | Binder | binding, % of positive control peptide [1] | binding, % of positive control peptide [2] | binding, % of positive control peptide [3] | binding, % of positive control peptide [4] | % of positive control peptide binding [5] [%] | % of positive control peptide binding [6] [%] | % of positive control peptide binding [7] [%] | % of positive control peptide binding [8] [%]
1 | LHLEDNALK [5T4 9-mer peptide 132 (LHLEDNALK)] | 5 % of positive control | 0 % of positive control | 4 % of positive control | 4 % of positive control | – | – | – | –
2 | LASNHFLYL [5T4 9 mer peptide 109 LASNHFLYL] | – | – | – | – | 18 | 49 | 26 | 78
3 | RDVLAQLPS [5T4 9 mer peptide 114 RDVLAQLPS] | – | – | – | – | 3 | 4 | 1 | 15
4 | LTYVSFRNL [5T4 9-mer peptide 125 (LTYVSFRNL)] | 20 % of positive control | 58 % of positive control | 25 % of positive control | 28 % of positive control | – | – | – | –
5 | SSAPFLASA (also called Peptide No 22) [5T4 9 mer peptide 22 SSAPFLASA] | – | – | – | – | 1 | 7 | 6 | 85
6 | DRLTCAYPE [5T4 9-mer peptide 160 (DRLTCAYPE)] | 5 % of positive control | 3 % of positive control | 6 % of positive control | 0 % of positive control | – | – | – | –
7 | LDNNPWVCD [5T4 9-mer peptide 146 (LDNNPWVCD)] | 2 % of positive control | 3 % of positive control | 0 % of positive control | 0 % of positive control | – | – | – | –
8 | DNALKVLHN [5T4 9-mer peptide 134 (DNALKVLHN)] | 0 % of positive control | 0 % of positive control | 5 % of positive control | 1 % of positive control | – | – | – | –
9 | PHIRVFLDN [5T4 9-mer peptide 143 (PHIRVFLDN)] | 3 % of positive control | 10 % of positive control | 2 % of positive control | 0 % of positive control | – | – | – | –
10 | PWVCDCHMA [5T4 9-mer peptide 148 (PWVCDCHMA)] | 0 % of positive control | 0 % of positive control | 0 % of positive control | 0 % of positive control | – | – | – | –
11 | RRLELASNH [5T4 9 mer peptide 107 RRLELASNH] | – | – | – | – | 3 | 3 | 0 | 5
12 | AGRALQGLR (also called Peptide No 103) [5T4 9 mer peptide 103 AGRALQGLR] | – | – | – | – | 2 | 1 | 0 | 2
13 | SPTSSASSF (also called Peptide No 17) [5T4 9 mer peptide 17 SPTSSASSF] | – | – | – | – | 0 | 62 | 2 | 4
14 | NGTLAELQG [5T4 9-mer peptide 138 (NGTLAELQG)] | 3 % of positive control | 0 % of positive control | 9 % of positive control | 3 % of positive control | – | – | – | –
15 | IRVFLDNNP [5T4 9-mer peptide 144 (IRVFLDNNP)] | 3 % of positive control | 5 % of positive control | 4 % of positive control | 0 % of positive control | – | – | – | –
16 | DCHMADMVT [5T4 9-mer peptide 150 (DCHMADMVT)] | 3 % of positive control | 5 % of positive control | 7 % of positive control | 0 % of positive control | – | – | – | –
17 | LPRDVLAQL [5T4 9 mer peptide 113 LPRDVLAQL] | – | – | – | – | 3 | 79 | 3 | 10

Row | Binder | binding, % of positive control peptide [1] | binding, % of positive control peptide [2] | binding, % of positive control peptide [3] | binding, % of positive control peptide [4] | % of positive control peptide binding [5] [%] | % of positive control peptide binding [6] [%] | % of positive control peptide binding [7] [%] | % of positive control peptide binding [8] [%]
18 | SFRNLTHLE [5T4 9-mer peptide 127 (SFRNLTHLE)] | 1 % of positive control | 0 % of positive control | 1 % of positive control | 1 % of positive control | – | – | – | –
19 | NNSLVSLTY [5T4 9-mer peptide 122 (NNSLVSLTY)] | 4 % of positive control | 0 % of positive control | 12 % of positive control | 8 % of positive control | – | – | – | –
20 | ETEVVQGKD [5T4 9-mer peptide 156 (ETEVVQGKD)] | 3 % of positive control | 1 % of positive control | 1 % of positive control | 0 % of positive control | – | – | – | –
21 | VSSSSPTSS (also called Peptide No 15) [5T4 9 mer peptide 15 VSSSSPTSS] | – | – | – | – | 2 | 2 | 3 | 9
22 | LKETEVVQG [5T4 9-mer peptide 155 (LKETEVVQG)] | 4 % of positive control | 3 % of positive control | 3 % of positive control | 0 % of positive control | – | – | – | –
23 | LTCAYPEKM [5T4 9-mer peptide 161 (LTCAYPEKM)] | 8 % of positive control | 6 % of positive control | 40 % of positive control | 16 % of positive control | – | – | – | –
24 | NNPWVCDCH [5T4 9-mer peptide 147 (NNPWVCDCH)] | 16 % of positive control | 4 % of positive control | 0 % of positive control | 0 % of positive control | – | – | – | –
25 | GKDRLTCAY [5T4 9-mer peptide 159 (GKDRLTCAY)] | 6 % of positive control | 4 % of positive control | 6 % of positive control | 3 % of positive control | – | – | – | –
26 | ADMVTWLKE [5T4 9-mer peptide 152 (ADMVTWLKE)] | 4 % of positive control | 8 % of positive control | 6 % of positive control | 0 % of positive control | – | – | – | –
27 | LDLSNNSLV (also called Peptide No 120) [5T4 9 mer peptide 120 LDLSNNSLV] | – | – | – | – | 3 | 3 | 7 | 42
28 | AALLAGRAL [5T4 9 mer peptide 101 AALLAGRAL] | – | – | – | – | 0 | 59 | 1 | 38
29 | AELQGLPHI [5T4 9-mer peptide 140 (AELQGLPHI)] | 1 % of positive control | 0 % of positive control | 9 % of positive control | 0 % of positive control | – | – | – | –
30 | VQGKDRLTC [5T4 9-mer peptide 158 (VQGKDRLTC)] | 6 % of positive control | 6 % of positive control | 4 % of positive control | 0 % of positive control | – | – | – | –
31 | HLESLHLED [5T4 9-mer peptide 130 (HLESLHLED)] | 2 % of positive control | 2 % of positive control | 3 % of positive control | 4 % of positive control | – | – | – | –
32 | ESLHLEDNA [5T4 9-mer peptide 131 (ESLHLEDNA)] | 0 % of positive control | 0 % of positive control | 8 % of positive control | 2 % of positive control | – | – | – | –
33 | SSSPTSSAS (also called Peptide No 16) [5T4 9 mer peptide 16 SSSPTSSAS] | – | – | – | – | 2 | 8 | 4 | 7
